Earlier results on 1 substance are cited in publication PMC5659385.

For orientation: Kd means the concentration at which binding is half-saturated.

The data set concerns the target concanavalin A (Canavalia ensiformis) (UniProt P02866).
Chain of UniProt P02866 (P02866 30-148, chain 1 of 2): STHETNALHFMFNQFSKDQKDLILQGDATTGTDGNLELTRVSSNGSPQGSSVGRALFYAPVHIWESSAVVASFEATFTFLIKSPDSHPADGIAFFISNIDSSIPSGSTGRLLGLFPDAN
Chain of UniProt P02866 (P02866 164-281, chain 2 of 2): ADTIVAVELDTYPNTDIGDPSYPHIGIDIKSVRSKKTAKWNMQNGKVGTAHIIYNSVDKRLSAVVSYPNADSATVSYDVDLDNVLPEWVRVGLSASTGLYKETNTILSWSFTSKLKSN

As for glucose oxidase (from UniProt P13006), the Kd was 1.64 nM.
